Measured values published in US20030211141A1.

Biological target: integrin α7β1 on C2C12 murine myoblasts (murine) (UniProt Q61738)
Experiment: cell-based or functional assay

C2C12 skeletal muscle cell attachment to a βIG-H3 substratum after function-perturbing anti-α7 antibody (% reduction of attachment): 80
Substance: human recombinant βIG-H3 (Transforming Growth Factor-β Induced Gene-Human Clone 3 protein), expressed in CHO cells and purified (from UniProt Q15582 1-683) (ligand)
